Drawing on paper PMC7293044, this text covers Kd for one molecule.

The data set concerns the target T1, Edc3 (UniProt P39998 1-551).
T1 sequence: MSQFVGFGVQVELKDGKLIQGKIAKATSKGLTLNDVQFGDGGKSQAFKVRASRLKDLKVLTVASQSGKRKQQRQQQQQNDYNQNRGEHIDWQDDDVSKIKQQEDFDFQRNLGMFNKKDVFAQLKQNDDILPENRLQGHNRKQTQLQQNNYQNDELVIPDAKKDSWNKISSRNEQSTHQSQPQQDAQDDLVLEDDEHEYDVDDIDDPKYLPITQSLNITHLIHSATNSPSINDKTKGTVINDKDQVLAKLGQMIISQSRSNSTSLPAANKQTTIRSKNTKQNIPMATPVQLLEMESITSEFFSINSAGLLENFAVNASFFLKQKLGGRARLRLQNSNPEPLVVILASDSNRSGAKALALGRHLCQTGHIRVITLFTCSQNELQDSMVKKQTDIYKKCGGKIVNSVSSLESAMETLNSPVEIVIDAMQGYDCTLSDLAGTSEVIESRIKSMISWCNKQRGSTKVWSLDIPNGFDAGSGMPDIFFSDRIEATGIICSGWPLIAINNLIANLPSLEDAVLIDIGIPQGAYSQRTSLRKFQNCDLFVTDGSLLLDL
Kind of data set: EMSA.

B1: RPS28B 3'UTR stem-loop 60mer (WT) (structured_RNA)
RNA: AUUUUUCAAAAAAUGAAUUAAAUGAUUGAAGUCACUUAAUUUUUGUGGUUUUUUGGAGGU
B1 came in with a Kd of 2.55 µM.
